This note sets out measurements from the supplement of paper PMC5998384.

Data set [1] has as its system HeLa Kyoto. Briefly: solubility in G1/S (NP-40 vs SDS abundance) (log2 ratio); higher = more soluble. Particulars: cell cycle stage: G1/S.
The test system of data set [2] is HeLa Kyoto. The experiment in a line: thermal stability score vs G1/S (z-score of summed log2 fold changes over temperatures); higher = more thermally stable than in G1/S.
Data set [3] deals with HeLa Kyoto. Briefly: solubility change mitosis vs G1/S (difference of NP-40 vs SDS log2 ratios) (log2 ratio difference); higher = more soluble in mitosis.
Data set [4] deals with HeLa Kyoto. The experiment in a line: melting temperature (median over replicates), in situ; higher = more thermally stable.
The mark [5] stands for this setting: cell cycle stage: early G1 (4.5 h after nocodazole release).
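Throughout, for melting temperature (median over replicates), in situ: HeLa Kyoto cells synchronized by double thymidine or nocodazole block, proteins quantified by TMT10plex mass spectrometry, three independent biological replicates.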
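Throughout, for solubility change mitosis vs G1/S (difference of NP-40 vs SDS log2 ratios): synchronized HeLa Kyoto cells (double thymidine block for G1/S, nocodazole release for mitosis), protein amounts in NP-40 versus SDS lysates quantified by mass spectrometry, three biological replicates.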
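Throughout, for solubility in G1/S (NP-40 vs SDS abundance): HeLa Kyoto cells arrested at G1/S by double thymidine block, proteins quantified by TMT10plex mass spectrometry in mild NP-40 versus SDS extracts, three biological replicates.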
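Throughout, for thermal stability score vs G1/S (z-score of summed log2 fold changes over temperatures): synchronized HeLa Kyoto cells, proteins quantified by TMT10plex mass spectrometry, three biological replicates, mitosis taken 0.5 h after nocodazole release, G1/S directly after double thymidine block.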

For “MPSPRPVLLRGARAALLLLLPPRLLARPSLLLRRSLSAASCPPISLPAAASRSSMDGAGAEEVLAPLRLAVRQQGDLVRKLKEDKAPQVDVDKAVAELKARKRVLEAKELALQPKDDIVDRAKMEDTLKRRFFYDQAFAIYGGVSGLYDFGPVGCALKNNIIQTWRQHFIQEEQILEIDCTMLTPEPVLKTSGHVDKFADFMVKDVKNGECFRADHLLKAHLQKLMSDKKCSVEKKSEMESVLAQLDNYGQQELADLFVNYNVKSPITGNDLSPPVSFNLMFKTFIGPGGNMPGYLRPETAQGIFLNFKRLLEFNQGKLPFAAAQIGNSFRNEISPRSGLIRVREFTMAEIEHFVDPSEKDHPKFQNVADLHLYLYSAKAQVSGQSARKMRLGDAVEQGVINNTVLGYFIGRIYLYLTKVGISPDKLRFRQHMENEMAHYACDCWDAESKTSYGWIEIVGCADRSCYDLSCHARATKVPLVAEKPLKEPKTVNVVQFEPSKGAIGKAYKKDAKLVMEYLAICDECYITEMEMLLNEKGEFTIETEGKTFQLTKDMINVKRFQKTLYVEEVVPNVIEPSFGLGRIMYTVFEHTFHVREGDEQRTFFSFPAVVAPFKCSVLPLSQNQEFMPFVKELSEALTRHGVSHKVDDSSGSIGRRYARTDEIGVAFGVTIDFDTVNKTPHTATLRDRDSMRQIRAEISELPSIVQDLANGNITWADVEARYPLFEGQETGKKETIEE [GARS]”, the “solubility in G1/S (log2)” value in the data set with HeLa Kyoto [1] is 0.0194. Besides, the figures for the thermal stability score in the data set with HeLa Kyoto [2] (setting [5]) and in the data set with HeLa Kyoto [2] (cell cycle stage: mitosis) were -2.91 and -2.03, respectively. Further, the “solubility change mitosis (log2)” value in the data set with HeLa Kyoto [3] was -0.136. For the same sequence, the melting temperature in the data set with HeLa Kyoto [4] (cell cycle stage: G1/S) worked out at 59.4 °C; in the data set with HeLa Kyoto [4] (cell cycle stage: mitosis), 59.5 °C.

For “MADILSQSETLASQDLSGDFKKPALPVSPAARSKAPASSSSNPEEVQKEGPTALQDSNSGEPDIPPPQPDCGDFRSLQEEQSRPPTAVSSPGGPARAPPYQEPPWGGPATAPYSLETLKGGTILGTRSLKGTSYCLFGRLSGCDVCLEHPSVSRYHAVLQHRASGPDGECDSNGPGFYLYDLGSTHGTFLNKTRIPPRTYCRVHVGHVVRFGGSTRLFILQGPEEDREAESELTVTQLKELRKQQQILLEKKMLGEDSDEEEEMDTSERKINAGSQDDEMGCTWGMGEDAVEDDAEENPIVLEFQQEREAFYIKDPKKALQGFFDREGEELEYEFDEQGHSTWLCRVRLPVDDSTGKQLVAEAIHSGKKKEAMIQCSLEACRILDTLGLLRQEAVSRKRKAKNWEDEDFYDSDDDTFLDRTGLIEKKRLNRMKKAGKIDEKPETFESLVAKLNDAERELSEISERLKASSQVLSESPSQDSLDAFMSEMKSGSTLDGVSRKKLHLRTFELRKEQQRLKGLIKIVKPAEIPELKKTETQTTGAENKAKKLTLPLFGAMKGGSKFKLKTGTVGKLPPKRPELPPTLMRMKDEPEVEEEEEEEEEEEKEKEEHEKKKLEDGSLSRPQPEIEPEAAVQEMRPPTDLTHFKETQTHENMSQLSEEEQNKDYQDCSKTTSLCAGPSASKNEYEKSRGELKKKKTPGPGKLPPTLSSKYPEDDPDYCVWVPPEGQSGDGRTHLNDKYGY [SLC4A1AP]”, in the data set with HeLa Kyoto [1], the “solubility in G1/S (log2)” value turned out to be 0.0907. Further, the thermal stability score with HeLa Kyoto [2] (setting [5]) was -0.0668; with HeLa Kyoto [2] (cell cycle stage: mitosis), 1.11. Also, the “solubility change mitosis (log2)” value in the data set with HeLa Kyoto [3] was -0.0506. The melting temperature in the data set with HeLa Kyoto [4] (cell cycle stage: G1/S) was 50.1 °C; with HeLa Kyoto [4] (cell cycle stage: mitosis), 51.7 °C.

“MADISLDELIRKRGAAAKGRLNARPGVGGVRSRVGIQQGLLSQSTRTATFQQRFDARQKIGLSDARLKLGVKDAREKLLQKDARFRIKGKVQDAREMLNSRKQQTTVPQKPRQVADAREKISLKRSSPAAFINPPIGTVTPALKLTKTIQVPQQKAMAPLHPHPAGMRINVVNNHQAKQNLYDLDEDDDGIASVPTKQMKFAASGGFLHHMAGLSSSKLSMSKALPLTKVVQNDAYTAPALPSSIRTKALTNMSRTLVNKEEPPKELPAAEPVLSPLEGTKMTVNNLHPRVTEEDIVELFCVCGALKRARLVHPGVAEVVFVKKDDAITAYKKYNNRCLDGQPMKCNLHMNGNVITSDQPILLRLSDSPSMKKESELPRRVNSASSSNPPAEVDPDTILKALFKSSGASVTTQPTEFKIKL [POLDIP3]”: the “solubility in G1/S (log2)” value with HeLa Kyoto [1] is -0.386. Besides, the thermal stability score was -0.794 in the data set with HeLa Kyoto [2] (setting [5]) and -0.0102 in the data set on HeLa Kyoto [2] (cell cycle stage: mitosis). Further, in the data set with HeLa Kyoto [3], the “solubility change mitosis (log2)” value came out at 0.732. The results for the melting temperature in the data set on HeLa Kyoto [4] (cell cycle stage: G1/S) and in the data set with HeLa Kyoto [4] (cell cycle stage: mitosis) were 49.3 °C and 49.9 °C, respectively.

In the case of “MVQKESQATLEERESELSSNPAASAGASLEPPAAPAPGEDNPAGAGGAAVAGAAGGARRFLCGVVEGFYGRPWVMEQRKELFRRLQKWELNTYLYAPKDDYKHRMFWREMYSVEEAEQLMTLISAAREYEIEFIYAISPGLDITFSNPKEVSTLKRKLDQVSQFGCRSFALLFDDIDHNMCAADKEVFSSFAHAQVSITNEIYQYLGEPETFLFCPTEYCGTFCYPNVSQSPYLRTVGEKLLPGIEVLWTGPKVVSKEIPVESIEEVSKIIKRAPVIWDNIHANDYDQKRLFLGPYKGRSTELIPRLKGVLTNPNCEFEANYVAIHTLATWYKSNMNGVRKDVVMTDSEDSTVSIQIKLENEGSDEDIETDVLYSPQMALKLALTEWLQEFGVPHQYSSRQVAHSGAKASVVDGTPLVAAPSLNATTVVTTVYQEPIMSQGAALSGEPTTLTKEEEKKQPDEEPMDMVVEKQEETDHKNDNQILSEIVEAKMAEELKPMDTDKESIAESKSPEMSMQEDCISDIAPMQTDEQTNKEQFVPGPNEKPLYTAEPVTLEDLQLLADLFYLPYEHGPKGAQMLREFQWLRANSSVVSVNCKGKDSEKIEEWRSRAAKFEEMCGLVMGMFTRLSNCANRTILYDMYSYVWDIKSIMSMVKSFVQWLGCRSHSSAQFLIGDQEPWAFRGGLAGEFQRLLPIDGANDLFFQPPPLTPTSKVYTIRPYFPKDEASVYKICREMYDDGVGLPFQSQPDLIGDKLVGGLLSLSLDYCFVLEDEDGICGYALGTVDVTPFIKKCKISWIPFMQEKYTKPNGDKELSEAEKIMLSFHEEQEVLPETFLANFPSLIKMDIHKKVTDPSVAKSMMACLLSSLKANGSRGAFCEVRPDDKRILEFYSKLGCFEIAKMEGFPKDVVILGRSL [MGEA5]”, the “solubility in G1/S (log2)” value in the data set with HeLa Kyoto [1] was -0.0358. The thermal stability score in the data set on HeLa Kyoto [2] (setting [5]) is -1.09; in the data set with HeLa Kyoto [2] (cell cycle stage: mitosis), -0.671. In addition, in the data set with HeLa Kyoto [3], the “solubility change mitosis (log2)” value is -0.112. Besides, the melting temperature was determined as 52.8 °C in the data set on HeLa Kyoto [4] (cell cycle stage: G1/S) and 52.4 °C with HeLa Kyoto [4] (cell cycle stage: mitosis).
